3 proteins from paper PMC9583936 (Biochemistry, 2022) can be followed below.

Like-named read-outs stand apart in the source and are kept apart here. *1 amine or outer side, *2 acyl side, *3 side chain or, on linkers, in order; H or OH if unused. Where no end group is shown, it is not given here. [ ]: non-standard residue; d: D form. Leu(4-F) = γ-19F-leucine (4-fluoro-leucine), CC(C)(F)C[C@H](N[*:1])C(=O)[*:2]; Phe(4-F) = N[C@@H](Cc1ccc(F)cc1)C(=O)O

Data set [1] concerns the molecule itself. In words: 19F solid-state NMR CODEX.
Data set [2] concerns the molecule itself. In words: 19F solid-state NMR CODEX. This is another data set of the same source.

B1: γ-19F-Leu18 labeled ETM (transmembrane domain of the SARS-CoV-2 envelope protein, residues 8-38) (peptide)
peptide: Ac-ETGTLIVNSV[Leu(4-F)]LFLAFVVFLLVTLAILTALR-NH2
SMILES: CC[C@H](C)[C@H](NC(=O)[C@H](C)NC(=O)[C@H](CC(C)C)NC(=O)[C@@H](NC(=O)[C@@H](NC(=O)[C@H](CC(C)C)NC(=O)[C@H](CC(C)C)NC(=O)[C@H](Cc1ccccc1)NC(=O)[C@@H](NC(=O)[C@@H](NC(=O)[C@H](Cc1ccccc1)NC(=O)[C@H](C)NC(=O)[C@H](CC(C)C)NC(=O)[C@H](Cc1ccccc1)NC(=O)[C@H](CC(C)C)NC(=O)[C@H](CC(C)(C)F)NC(=O)[C@@H](NC(=O)[C@H](CO)NC(=O)[C@H](CC(N)=O)NC(=O)[C@@H](NC(=O)[C@@H](NC(=O)[C@H](CC(C)C)NC(=O)[C@@H](NC(=O)CNC(=O)[C@@H](NC(=O)[C@H](CCC(=O)O)NC(C)=O)[C@@H](C)O)[C@@H](C)O)[C@@H](C)CC)C(C)C)C(C)C)C(C)C)C(C)C)C(C)C)[C@@H](C)O)C(=O)N[C@@H](CC(C)C)C(=O)N[C@H](C(=O)N[C@@H](C)C(=O)N[C@@H](CC(C)C)C(=O)N[C@@H](CCCNC(=N)N)C(N)=O)[C@@H](C)O
With B1, the “stoichiometry N” value in data set [1] is 5.

B2: 4-19F-Phe23 labeled ETM (transmembrane domain of the SARS-CoV-2 envelope protein, residues 8-38) (peptide)
peptide: ETGTLIVNSVLLFLA[Phe(4-F)]VVFLLVTLAILTALR-NH2
modifications: N-terminus assumed
SMILES: CC[C@H](C)[C@H](NC(=O)[C@H](C)NC(=O)[C@H](CC(C)C)NC(=O)[C@@H](NC(=O)[C@@H](NC(=O)[C@H](CC(C)C)NC(=O)[C@H](CC(C)C)NC(=O)[C@H](Cc1ccccc1)NC(=O)[C@@H](NC(=O)[C@@H](NC(=O)[C@H](Cc1ccc(F)cc1)NC(=O)[C@H](C)NC(=O)[C@H](CC(C)C)NC(=O)[C@H](Cc1ccccc1)NC(=O)[C@H](CC(C)C)NC(=O)[C@H](CC(C)C)NC(=O)[C@@H](NC(=O)[C@H](CO)NC(=O)[C@H](CC(N)=O)NC(=O)[C@@H](NC(=O)[C@@H](NC(=O)[C@H](CC(C)C)NC(=O)[C@@H](NC(=O)CNC(=O)[C@@H](NC(=O)[C@@H](N)CCC(=O)O)[C@@H](C)O)[C@@H](C)O)[C@@H](C)CC)C(C)C)C(C)C)C(C)C)C(C)C)C(C)C)[C@@H](C)O)C(=O)N[C@@H](CC(C)C)C(=O)N[C@H](C(=O)N[C@@H](C)C(=O)N[C@@H](CC(C)C)C(=O)N[C@@H](CCCNC(=N)N)C(N)=O)[C@@H](C)O
Take B2: the “stoichiometry N” value in data set [1] amounted to 5.
Consider ETGTLIVNSVLL[Phe(4-F)]LAFVVFLLVTLAILTALR [4-19F-Phe20 labeled ETM (transmembrane domain of the SARS-CoV-2 envelope protein)], for which the “stoichiometry N” value in data set [2] amounted to 5.
